Measurements reported in patent US20210403864A1, “METHODS AND COMPOSITIONS FOR TREATING ACTIVATED G-ALPHA Q MUTANT CANCERS OR MELANOCYTIC MALIGNANCIES” (Memorial Sloan Kettering Cancer Center, priority 2018, published 2021).

Tests used:
[1] = tested on: human Mel202 uveal melanoma xenografts; experiment: In vivo anti-tumor activity, xenografts in SCID mice; conditions: MEK162 10 mg/kg P.O. b.i.d.; YM-254890 2.5 mg/kg i.p. q.d.; over 20 days; single agents vs vehicle, combination vs vehicle and single agents
Experimental: To evaluate the effect of YM-254890 and binimetinib (MEK162) in vivo, Mel202 uveal melanoma xenografts were established in SCID mice, and the mice were treated with vehicle only, 10 mg/kg MEK162 (P.O., b.i.d.), YM-254890 (2.5 mg/kg i.p., q.d.) or a combination of MEK162 and YM-254890. Tumor volumes were measured over 20 days.

[2] = biological target: GNAQ^R183Q (human GNAQ α-subunit, R183Q mutant) (human) (UniProt P50148); experiment: cell-based or functional assay
GNAQ^R183Q (human GNAQ α-subunit, R183Q mutant) (human), sequence (P50148 whole entry R183Q): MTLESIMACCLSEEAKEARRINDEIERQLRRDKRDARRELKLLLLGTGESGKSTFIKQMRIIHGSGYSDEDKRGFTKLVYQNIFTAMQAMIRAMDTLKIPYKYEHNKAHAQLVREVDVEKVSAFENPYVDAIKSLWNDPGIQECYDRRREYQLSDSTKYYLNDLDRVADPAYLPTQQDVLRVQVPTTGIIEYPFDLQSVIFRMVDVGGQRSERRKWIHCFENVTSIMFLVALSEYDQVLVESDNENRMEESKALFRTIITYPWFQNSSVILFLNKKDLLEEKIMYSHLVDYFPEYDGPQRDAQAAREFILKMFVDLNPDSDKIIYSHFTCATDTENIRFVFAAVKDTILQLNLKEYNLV

[3] = biological target: GNAQ^Q209L/P (endogenous, in three human UVM cell lines) (human) (UniProt P50148); experiment: cell-based or functional assay
[4] = biological target: GNAQ^Q209L (human GNAQ α-subunit, Q209L mutant) (human) (UniProt P50148); experiment: cell-based or functional assay
GNAQ^Q209L (human GNAQ α-subunit, Q209L mutant) (human), sequence (P50148 whole entry Q209L): as the sequence (P50148 whole entry R183Q) above, with Q183R, Q209L counted along it

| IP1 accumulation after 24-hour treatment with variable doses of YM, transfected HEK293T cells (fold less sensitive) [2] | IP1 accumulation, mutant-transformed melan-a cells, 24-hour treatment (fold less sensitive) [2] | IC50 of cell proliferation, human UVM cell lines (CellTiter-glo 2.0, 5 days) [3] [nM] | IP1 accumulation, mutant-transformed melan-a cells, 24-hour treatment (fold less sensitive) [4] | Compound | tumor volume [1] |
| --- | --- | --- | --- | --- | --- |
| – | – | – | – | Cn1cnc2c(F)c(Nc3ccc(Br)cc3F)c(C(=O)NOCCO)cc21 [MEK162, binimetinib] | moderate reduction |
| 20 | 10 | 100 | 10 | YM-254890 (peptide) | – |
